What is called stoichiometry N is the number of molecules, sites or subunits per partner or assembly.

Results on one substance are retold here after paper PMC7984459.

The experiment addresses Epac1-camps-PDE4A1. Nature of the experiment: molecular brightness analysis.

For the substance Epac1-camps-PDE4A1, the stoichiometry N worked out at 2.
